Columns and labels:
[1] = inside-out patch clamp, G-V Boltzmann fits, 0 Ca2+; details: glycan lost, untreated cells; for other: BK channel gating modulation: control: γ2 WT
[2] = whole-cell lysate anti-FLAG immunoblot; details: glycan lost, untreated cells
[3] = cell surface immunoprecipitation, N-terminal FLAG; details: glycan lost, untreated cells; for localisation_or_trafficking, other: percent decrease: control: γ1 WT
[4] = inside-out patch clamp, G-V, 0 Ca2+; details: glycan lost; control: γ3 WT, untreated cells

B1: BK channel γ2 subunit (LRRC52): N148Q (protein)
parent chain: MSLASGPGPGWLLFSFGMGLVSGSKCPNNCLCQAQEVICTGKQLTEYPLDIPLNTRRLFLNENRITSLPAMHLGLLSDLVYLDCQNNRIREVMDYTFIGVFKLIYLDLSSNNLTSISPFTFSVLSNLVQLNIANNPHLLSLHKFTFANTTSLRYLDLRNTGLQTLDSAALYHLTTLETLFLSGNPWKCNCSFLDFAIFLIVFHMDPSDDLNATCVEPTELTGWPITRVGNPLRYMCITHLDHKDYIFLLLIGFCIFAAGTVAAWLTGVCAVLYQNTRHKSSEEDEDEAGTRVEVSRRIFQTQTSSVQEFPQLI
[1]
  other: BK channel gating modulation: decreases

B2: BK channel γ2 subunit (LRRC52): N211Q (protein)
parent chain: B1 parent chain
[1]
  other: BK channel gating modulation: decreases

B3: BK channel γ2 subunit (LRRC52): N112Q/N148Q (protein)
parent chain: B1 parent chain
[1]
  other: BK channel gating modulation: decreases

B4: BK channel γ2 subunit (LRRC52): N112Q/N211Q (protein)
parent chain: B1 parent chain
[1]
  other: BK channel gating modulation: decreases

B5: BK channel γ2 subunit (LRRC52): N148Q/N211Q (protein)
parent chain: B1 parent chain
[1]
  other: BK channel gating modulation: decreases

B6: BK channel γ2 subunit (LRRC52): tunicamycin (protein)
parent chain: B1 parent chain
[2]; control: γ2 WT
  expression_or_secretion: decreases
[1]
  other: BK channel gating modulation: abolishes

B7: BK channel γ2 subunit (LRRC52): triple-site mutant (N112Q/N148Q/N211Q) (protein)
parent chain: B1 parent chain
[2]; control: γ2 WT
  expression_or_secretion: decreases

B8: BK channel γ3 subunit (LRRC55): tunicamycin (protein)
parent chain: MGDTWAQLPWPGPPHPAMLLISLLLAAGLMHSDAGTSCPVLCTCRNQVVDCSSQRLFSVPPDLPMDTRNLSLAHNRITAVPPGYLTCYMELQVLDLHNNSLMELPRGLFLHAKRLAHLDLSYNNFSHVPADMFQEAHGLVHIDLSHNPWLRRVHPQAFQGLMQLRDLDLSYGGLAFLSLEALEGLPGLVTLQIGGNPWVCGCTMEPLLKWLRNRIQRCTADSQLAECRGPPEVEGAPLFSLTEESFKACHLTLTLDDYLFIAFVGFVVSIASVATNFLLGITANCCHRWSKASEEEEI
[3]; control: γ3 WT
  localisation_or_trafficking: abolishes
[4]
  other: BK channel gating modulation, other: V1/2: abolishes, 160.1 ± 7.4 vs 115.0 ± 1.7

B9: BK channel γ1 subunit (LRRC26): tunicamycin (protein)
parent chain: MRGPSWSRPRPLLLLLLLLSPWPVWAQVSATASPSGSLGAPDCPEVCTCVPGGLASCSALSLPAVPPGLSLRLRALLLDHNRVRALPPGAFAGAGALQRLDLRENGLHSVHVRAFWGLGALQLLDLSANQLEALAPGTFAPLRALRNLSLAGNRLARLEPAALGALPLLRSLSLQDNELAALAPGLLGRLPALDALHLRGNPWGCGCALRPLCAWLRRHPLPASEAETVLCVWPGRLTLSPLTAFSDAAFSHCAQPLALRDLAVVYTLGPASFLVSLASCLALGSGLTACRARRRRLRTAALRPPRPPDPNPDPDPHGCASPADPGSPAAAAQA
[2]; control: γ1 WT
  expression_or_secretion: no change
[3]
  localisation_or_trafficking, other: percent decrease: decreases
[1]; control: γ1 WT
  other: BK channel gating modulation, other: fraction of channels not modulated: decreases

B10: BK channel γ1 subunit (LRRC26): N147Q (protein)
parent chain: B9 parent chain
[2]; control: γ1 WT
  expression_or_secretion: no change
[3]
  localisation_or_trafficking, other: percent decrease: decreases

B11: BK channel γ2 subunit (LRRC52): N112Q (protein)
parent chain: B1 parent chain
[1]
  other: BK channel gating modulation: decreases
